Assay results: the RNAGym collection of RNA variant scans (doi:10.7554/elife.80360)

B1: Hairpin Ribozyme (parent)
chain: GUCCUCUUUCACGUGCGCGUGAAAGAGAGAAGUGAACCAGAGAAACACACGUUGUGGUAUAUUACCUGGUA

Variants of: B1
Assay: self-cleavage, relative activity (ratio to wild type); higher = more cleavage; co-transcriptional

Row | Variant | self-cleavage
1 | U14C A44C | 0.241
2 | U14C A44U | 0.0783
3 | U14C A45C | 0.206
4 | U14C A45G | 0.0672
5 | U14C A47G | 0.118
6 | U14C A59C | 0.0922
7 | U14C A61U | 0.293
8 | U14C A64G | 0.568
9 | U14C C16A | 0.922
10 | U14C C16G | 0.821
11 | U14C C18G | 0.957
12 | U14C C38U | 0.493
13 | U14C C50U | 0.265
14 | U14C C66A | 0.223
15 | U14C G17C | 0.582
16 | U14C G19A | 0.612
17 | U14C G21C | 0.883
18 | U14C G25U | 0.762
19 | U14C G27C | 0.078
20 | U14C G29U | 0.198
21 | U14C G34A | 0.988
22 | U14C G34U | 1.54
23 | U14C G40A | 0.326
24 | U14C G40C | 0.156

Row | Variant | self-cleavage
25 | U14C G40U | 0.188
26 | U14C G51C | 0.586
27 | U14C G54C | 0.397
28 | U14C G56A | 0.143
29 | U14C G57A | 0.215
30 | U14C G57C | 0.0473
31 | U14C G68A | 0.234
32 | U14C G68U | 0.13
33 | U14C G69C | 0.3
34 | U14C U33C | 0.0775
35 | U14C U33G | 0.191
36 | U14C U53A | 1.18
37 | U14C U53C | 0.675
38 | U14C U53G | 0.936
39 | U14C U58G | 0.545
40 | U14C U60G | 0.727
41 | U14C U67A | 0.151
42 | U14C U67G | 0.344
43 | U14C U70C | 1.15
44 | U14G A22C | 0.75
45 | U14G A23C | 0.754
46 | U14G A23U | 0.68
47 | U14G A24C | 0.887
48 | U14G A26G | 0.781

Row | Variant | self-cleavage
49 | U14G A28U | 0.39
50 | U14G A30G | 0.0762
51 | U14G A31U | 0.119
52 | U14G A35C | 0.805
53 | U14G A35G | 0.715
54 | U14G A35U | 0.49
55 | U14G A36C | 0.729
56 | U14G A39C | 0.393
57 | U14G A41U | 1.05
58 | U14G A44U | 0.138
59 | U14G A45U | 0.147
60 | U14G A47G | 0.157
61 | U14G A49C | 0
62 | U14G A59G | 0.121
63 | U14G A64G | 0.407
64 | U14G C16G | 0.548
65 | U14G C16U | 1.06
66 | U14G C18A | 0.941
67 | U14G C18G | 0.694
68 | U14G C38G | 0.119
69 | U14G C46A | 0.113
70 | U14G C46U | 0.21
71 | U14G C48G | 0.178
72 | U14G C50A | 0.307

Row | Variant | self-cleavage
73 | U14G C65G | 0.213
74 | U14G G15A | 0.932
75 | U14G G19A | 0.651
76 | U14G G19C | 0.842
77 | U14G G21U | 0.625
78 | U14G G27A | 0.189
79 | U14G G29C | 0.169
80 | U14G G32C | 0.0712
81 | U14G G34A | 1.05
82 | U14G G40A | 0.289
83 | U14G G40U | 0.2
84 | U14G G42A | 0.163
85 | U14G G51U | 1.02
86 | U14G G54C | 0.315
87 | U14G G54U | 0.491
88 | U14G G56A | 0.103
89 | U14G G57C | 0.0955
90 | U14G G68A | 0.32
91 | U14G G68U | 0.333
92 | U14G G69A | 0.303
93 | U14G U52A | 1.02
94 | U14G U52C | 0.966
95 | U14G U53C | 0.925
96 | U14G U55A | 0.0772

Row | Variant | self-cleavage
97 | U14G U55C | 0.286
98 | U14G U58G | 0.464
99 | U14G U60C | 1.23
100 | U14G U62G | 0.106
101 | U14G U67G | 0.243
102 | U14G U70A | 0.823
103 | G15A | 0.906
104 | G15A A23G | 0.862
105 | G15A A24U | 0.688
106 | G15A A28U | 0.588
107 | G15A A31C | 0.151
108 | G15A A36C | 0.815
109 | G15A A36G | 1.08
110 | G15A A39C | 0.508
111 | G15A A39U | 0.351
112 | G15A A41G | 0.92
113 | G15A A45C | 0.0834
114 | G15A A45U | 0.204
115 | G15A A61G | 0.18
116 | G15A A64C | 0.171
117 | G15A A64U | 0.233
118 | G15A A71C | 1.29
119 | G15A A71G | 0.943
120 | G15A C18G | 0.886

Row | Variant | self-cleavage
121 | G15A C46A | 0.132
122 | G15A C46G | 0.0897
123 | G15A C48G | 0.0967
124 | G15A C65A | 0.863
125 | G15A C66A | 0.129
126 | G15A G17U | 1.05
127 | G15A G21A | 0.831
128 | G15A G21C | 0.798
129 | G15A G25A | 0.576
130 | G15A G27A | 0.541
131 | G15A G29U | 0.0945
132 | G15A G32C | 0.174
133 | G15A G34A | 1.11
134 | G15A G34U | 1.26
135 | G15A G42C | 0.294
136 | G15A G42U | 0.301
137 | G15A G54U | 0.737
138 | G15A G57U | 0.3
139 | G15A G68A | 0.362
140 | G15A G68C | 0.219
141 | G15A U20A | 0.847
142 | G15A U20C | 0.864
143 | G15A U33G | 0.136
144 | G15A U52C | 0.916

Row | Variant | self-cleavage
145 | G15A U53A | 0.862
146 | G15A U53G | 0.687
147 | G15A U60A | 0.767
148 | G15A U62A | 0.177
149 | G15A U62G | 0.109
150 | G15A U67A | 0.188
151 | G15A U70C | 0.759
152 | G15C | 1.03
153 | G15C A22C | 0.846
154 | G15C A22G | 0.746
155 | G15C A26G | 1.03
156 | G15C A30U | 0.293
157 | G15C A31G | 0.692
158 | G15C A31U | 0.105
159 | G15C A41C | 1.28
160 | G15C A41G | 1.04
161 | G15C A41U | 1.28
162 | G15C A43G | 0.11
163 | G15C A44G | 0.146
164 | G15C A45G | 0.194
165 | G15C A45U | 0.191
166 | G15C A47C | 0.295
167 | G15C A59G | 0.104
